What was measured:
Assay in all cases: capture ELISA: Ab1 on anti-human IgG Fc, His-tagged receptor at 0.04 µg/mL, anti-His HRP
[1] = biological target: T1, hexahistidine tagged human IL-4Rα ECD E6R (human, UniProt P24394 26-232)
T1 construct: not shown: hexahistidine tag
Description: (§1) Example 2d. […] Briefly, thirty surface amino acid residue substitutions were introduced individually into hexahistidine tagged human IL-4Rα extra cellular domain (ECD) as follows: K2D, E6R, K22D, P26R, T31R, F41A, L42G, L43G, E45R, E52R, G56R, D66R, A71R, Q82G, K87D, E94R, H107A, D108R, P124R, D125R, D143R, R148D, L155R, R160D, S164R, S168R, Q181R, P192R, K195D, or H197G. Each mutant protein having a single amino acid residue substitution as described above was transiently expressed in CHO cells and purified using standard immobilized metal affinity chromatography techniques. […] The plates were then washed 3 times with PBST and the exemplified human IL-4Rα antibody was added to the wells at a final concentration of 1 μg/mL in PBS-casein and incubated for 1 hour at room temperature. The plates were washed 3 times with PBST, the IL-4Rα mutant proteins were serially diluted 5-fold from 1 μg/mL for 3 points. in PBS-casein and added to the plate at 50 μL/well and incubated for 1 hour at room temperature. The plates were washed 3 times with PBST and a 1000-fold dilution of anti-histidine tag antibody HRP conjugate (R&D Systems, Cat. #MAB050H) in PBS-casein was added and incubated for 45 minutes at room temperature. The plates were washed 3 times, TMB substrate (Pierce, Cat. #34028) was added per manufacturer instructions, the reaction was quenched with H₂SO₄, and absorbance was read at 450 nm on an ELISA plate reader.

[2] = biological target: T2, hexahistidine tagged human IL-4Rα ECD D125R (human, UniProt P24394 26-232)
T2 construct: not shown: hexahistidine tag
Description: as §1

[3] = biological target: T3, hexahistidine tagged human IL-4Rα ECD T31R (human, UniProt P24394 26-232)
T3 construct: not shown: hexahistidine tag
Description: as §1

[4] = biological target: T4, hexahistidine tagged human IL-4Rα ECD G56R (human, UniProt P24394 26-232)
T4 construct: not shown: hexahistidine tag
Description: as §1

[5] = biological target: T5, hexahistidine tagged human IL-4Rα ECD P26R (human, UniProt P24394 26-232)
T5 construct: not shown: hexahistidine tag
Description: as §1

[6] = biological target: T6, hexahistidine tagged human IL-4Rα ECD Q82G (human, UniProt P24394 26-232)
T6 construct: not shown: hexahistidine tag
Description: as §1

[7] = biological target: T7, hexahistidine tagged human IL-4Rα ECD H107A (human, UniProt P24394 26-232)
T7 construct: not shown: hexahistidine tag
Description: as §1

[8] = biological target: T8, hexahistidine tagged human IL-4Rα ECD K195D (human, UniProt P24394 26-232)
T8 construct: not shown: hexahistidine tag
Description: as §1

[9] = biological target: T9, hexahistidine tagged human IL-4Rα ECD R160D (human, UniProt P24394 26-232)
T9 construct: not shown: hexahistidine tag
Description: as §1

[10] = biological target: T10, hexahistidine tagged human IL-4Rα ECD A71R (human, UniProt P24394 26-232)
T10 construct: not shown: hexahistidine tag
Description: as §1

[11] = biological target: T11, hexahistidine tagged human IL-4Rα ECD E45R (human, UniProt P24394 26-232)
T11 construct: not shown: hexahistidine tag
Description: as §1

[12] = biological target: T12, hexahistidine tagged human IL-4Rα ECD E52R (human, UniProt P24394 26-232)
T12 construct: not shown: hexahistidine tag
Description: as §1

[13] = biological target: T13, hexahistidine tagged human IL-4Rα ECD S164R (human, UniProt P24394 26-232)
T13 construct: not shown: hexahistidine tag
Description: as §1

[14] = biological target: T14, hexahistidine tagged human IL-4Rα ECD D143R (human, UniProt P24394 26-232)
T14 construct: not shown: hexahistidine tag
Description: as §1

[15] = biological target: T15, hexahistidine tagged human IL-4Rα ECD K2D (human, UniProt P24394 26-232)
T15 construct: not shown: hexahistidine tag
Description: as §1

[16] = biological target: T16, hexahistidine tagged human IL-4Rα ECD S168R (human, UniProt P24394 26-232)
T16 construct: not shown: hexahistidine tag
Description: as §1

[17] = biological target: T17, hexahistidine tagged human IL-4Rα ECD L43G (human, UniProt P24394 26-232)
T17 construct: not shown: hexahistidine tag
Description: as §1

[18] = biological target: T18, hexahistidine tagged human IL-4Rα ECD L155R (human, UniProt P24394 26-232)
T18 construct: not shown: hexahistidine tag
Description: as §1

T7 sequence (P24394 26-232 H132A): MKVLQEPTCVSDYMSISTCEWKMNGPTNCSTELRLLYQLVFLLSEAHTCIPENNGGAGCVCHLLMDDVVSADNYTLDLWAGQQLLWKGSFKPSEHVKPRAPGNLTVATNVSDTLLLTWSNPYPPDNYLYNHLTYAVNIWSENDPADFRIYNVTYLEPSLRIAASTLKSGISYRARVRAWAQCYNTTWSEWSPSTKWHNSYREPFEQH
T15 sequence (P24394 other isoform, or with tags, fused parts or gaps): as the sequence (P24394 26-232 H132A) above, with K2D, A107H counted along it
T18 sequence (P24394 26-232 L180R): as the sequence (P24394 26-232 H132A) above, with A107H, L155R counted along it
T14 sequence (P24394 26-232 D168R): as the sequence (P24394 26-232 H132A) above, with A107H, D143R counted along it
T9 sequence (P24394 26-232 R185D): as the sequence (P24394 26-232 H132A) above, with A107H, R160D counted along it
T10 sequence (P24394 26-232 A96R): as the sequence (P24394 26-232 H132A) above, with A71R, A107H counted along it
T8 sequence (P24394 26-232 K220D): as the sequence (P24394 26-232 H132A) above, with A107H, K195D counted along it
T2 sequence (P24394 26-232 D150R): as the sequence (P24394 26-232 H132A) above, with A107H, D125R counted along it
T11 sequence (P24394 26-232 E70R): as the sequence (P24394 26-232 H132A) above, with E45R, A107H counted along it
T3 sequence (P24394 26-232 T56R): as the sequence (P24394 26-232 H132A) above, with T31R, A107H counted along it
T1 sequence (P24394 other isoform, or with tags, fused parts or gaps): as the sequence (P24394 26-232 H132A) above, with E6R, A107H counted along it

B1: anti-human IL-4Rα antibody Ab1 (antibody, human IgG4 S228P, kappa)
heavy: QVQLVESGGGLVQPGGSLRLSCVASGFTFSHSSMNWVRQAPGKGLEWVSYISRATGAVYYADSVKGRFTISRDNAKNSLYLQMNSLRDEDTAVYYCAREPVFDYWGQGTLVTVSSASTKGPCVFPLAPCSRSTSESTAALGCLVKDYFPEPVTVSWNSGALTSGVHTFPAVLQSSGLYSLSSVVTVPSSSLGTKTYTCNVDHKPSNTKVDKRVESKYGPPCPPCPAPEFLGGPSVFLFPPKPKDTLMISRTPEVTCVVVDVSQEDPEVKFNWYVDGVEVHNAKTKPREEQFNSTYRVVSVLTVLHQDWLNGKEYKCKVSNKGLPSSIEKTISKAKGQPREPQVYTLPPSREEMTKNQVSLTCLVKGFYPSDICVEWESNGQPENNYKTTPPVLDSDGSFFLYSRLTVDKSRWQQGNVFSCSVMHEALHNHYTQKSLSLSLG
light: DIQMTQSPSAMSASVGDRVTITCRASQDISNYLAWFQQKPGKVPTRLIYAASSLQSGVPSRFSGSGSGTEFTLTISSLQPEDFATYYCLQWSSYPRTFGQGTKVEIKRTVAAPSVFIFPPSDEQLKSGTASVVCLLNNFYPREAKVQWKVDNALQSGNSQESVTEQDSKDSTYSLSSTLTLSKADYEKHKVYACEVTHQGLSSPVTKSFNRGEC
notes: human kappa light chain; also called anti-human IL-4Rα Ab1; unconjugated Ab1
ELISA (OD450) [1]: 0.915 OD450 | ELISA (OD450) [2]: 1.01 OD450 | ELISA (OD450) [3]: 0.994 OD450 | ELISA (OD450) [4]: 1.17 OD450 | ELISA (OD450) [5]: 0.883 OD450 | ELISA (OD450) [6]: 1.1 OD450 | ELISA (OD450) [7]: 1.42 OD450 | ELISA (OD450) [8]: 0.992 OD450 | ELISA (OD450) [9]: 1.2 OD450 | ELISA (OD450) [10]: 0.907 OD450 | ELISA (OD450) [11]: 1.58 OD450 | ELISA (OD450) [12]: 1.1 OD450 | ELISA (OD450) [13]: 1.4 OD450 | ELISA (OD450) [14]: 1.27 OD450 | ELISA (OD450) [15]: 1.09 OD450 | ELISA (OD450) [16]: 1.18 OD450 | ELISA (OD450) [17]: 1.35 OD450 | ELISA (OD450) [18]: 1.14 OD450
